Test results: patent US20100209945A1 (KOREA RESEARCH INSTITUTE OF BIOSCIENCE AND BIOTECHNOLOGY, published 2010)

Columns and labels:
rabbit originated IgG [1] = target: T1, rabbit originated IgG; assay: SPR (Biacore 3000), hybrid of 1a on CM-5 chip, antibody at 100-1,000 nM, nonlinear regression with BIAevaluation
T1 construct: also called rabbit IgG; rabbit originated antibodies
Experimental: (§1) The antibody solutions containing HIgG1, rabbit IgG, MIgG3 antibodies at the concentrations of 100 nM, 250 nM, 500 nM and 1,000 nM were spilled on the chip surface-treated with the hybrid of 1a of Example <3-1> at the speed of 10 μl/minute to induce the binding reaction and the degree of binding was measured by surface plasmon resonance (SPR) using Biacore 3000.
(§2) As a result, SPR sensor gram values represented in dotted line were obtained. The values were analyzed by nonlinear regression using BIAevaluation software equipped in Biacore 3000 to draw a theoretical line graph (FIG. 4a). From the theoretical graph, kinetic coefficients shown in FIG. 4b were obtained and the overlapping of each dotted line on the line indicates the calculation was correct.

human originated HIgG1 [2] = target: T2, human originated HIgG1; assay: as above
T2 construct: also called human IgG1 (anti CRP) antibody
Experimental: as §1, §2

rabbit originated IgG [3] = target: T1, rabbit originated IgG; assay: SPR (Biacore 3000), hybrid of 1a on a CM-5 chip, antibody at 100 to 1000 nM, nonlinear regression with BIAevaluation
Experimental: as §1, §2

human originated HIgG1 [4] = target: T2, human originated HIgG1; assay: as above
Experimental: as §1, §2

BSA = target: T3, BSA (UniProt P02769 25-607); assay: SPR (Biacore 3000), peptide hybrid coupled to a dextran CM-5 Au chip; legend: chip of formula 1, paragraph 80: hybrid of 1a
T3 construct: Control protein; also called BSA (control)
T3 sequence (P02769 25-607 limits assumed): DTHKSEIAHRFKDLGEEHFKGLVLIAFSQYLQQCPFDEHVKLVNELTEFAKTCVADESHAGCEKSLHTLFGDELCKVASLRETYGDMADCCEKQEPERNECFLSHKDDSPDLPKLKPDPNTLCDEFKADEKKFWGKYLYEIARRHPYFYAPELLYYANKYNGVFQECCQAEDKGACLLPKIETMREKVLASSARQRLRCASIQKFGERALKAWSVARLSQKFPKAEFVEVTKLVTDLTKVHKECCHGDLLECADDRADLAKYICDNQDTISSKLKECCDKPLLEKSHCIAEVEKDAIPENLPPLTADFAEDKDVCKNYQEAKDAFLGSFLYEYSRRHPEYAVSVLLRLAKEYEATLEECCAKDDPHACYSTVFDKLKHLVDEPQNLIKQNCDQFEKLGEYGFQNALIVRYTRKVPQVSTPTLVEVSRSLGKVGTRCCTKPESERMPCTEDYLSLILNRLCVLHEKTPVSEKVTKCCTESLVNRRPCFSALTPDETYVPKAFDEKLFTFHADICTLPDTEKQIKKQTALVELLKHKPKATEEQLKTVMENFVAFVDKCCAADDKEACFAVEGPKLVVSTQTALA
Experimental: Antibody solutions containing different animal originated antibodies of Example 2 or 5 μg/ml of BSA (control) in PBS were spilled on the chip of Example <3-1> at the speed of 10 μl/minute to bind the antibody to the peptide hybrid on the surface of the chip. The binding capacity was measured by surface plasmon resonance (SPR) using Biacore 3000.

[5] = target: mouse originated antibody MIgG3; assay: SPR (Biacore 3000), hybrid of 1a on a CM-5 chip, antibody at 100 to 1000 nM, nonlinear regression with BIAevaluation; Kon and Koff printed as NA
Experimental: as §1, §2

B1: peptide hybrid for protein immobilization represented by formula 1a (H2N(CH2CH2O)2CH2CH2CO-EDDC*AWHLGELVWC*T-CONH2) (peptide)
peptide: EDDCAWHLGELVWCT
modifications: N-terminal H2N(CH2CH2O)2CH2CH2CO- (PEG linker); C-terminal amide (CONH2); disulfide bond between the two Cys (C*)
notes: Synthetic peptide-PEG hybrid; In the assays it was coupled through its terminal amine to a CM-5 chip, magnetic micro beads or a glass plate; also called hybrid of 1a; peptide hybrid of 1a
Q: Which Kd (rabbit originated IgG [1]) does the source give for B1 here?
A: 0.305 µM

Q: And the Kd (human originated HIgG1 [2])?
A: 0.085 µM

Q: And the koff (rabbit originated IgG [3])?
A: 0.043 s⁻¹

Q: And the kon (rabbit originated IgG [3])?
A: 140000 M⁻¹ s⁻¹

Q: What about the koff (human originated HIgG1 [4]) of the same binder?
A: 0.02 s⁻¹

Q: And the kon (human originated HIgG1 [4])?
A: 230000 M⁻¹ s⁻¹

Q: Does B1 bind (BSA)?
A: no binding

Q: What about the Kd [5] of the same binder?
A: > 20 µM
